# Source: IntAct's records for PubMed 16461910
# Legend:
# dnaa_bacsu dnaA = dnaa_bacsu dnaA (UniProt P05648)
# acub_bacsu acuB = acub_bacsu acuB (UniProt P39066)
# tlpa_bacsu tlpA = tlpa_bacsu tlpA (UniProt P39216)
# dpo3b_bacsu dnaN = dpo3b_bacsu dnaN (UniProt P05649)
# Sequence of dpo3b_bacsu dnaN (P05649 whole entry): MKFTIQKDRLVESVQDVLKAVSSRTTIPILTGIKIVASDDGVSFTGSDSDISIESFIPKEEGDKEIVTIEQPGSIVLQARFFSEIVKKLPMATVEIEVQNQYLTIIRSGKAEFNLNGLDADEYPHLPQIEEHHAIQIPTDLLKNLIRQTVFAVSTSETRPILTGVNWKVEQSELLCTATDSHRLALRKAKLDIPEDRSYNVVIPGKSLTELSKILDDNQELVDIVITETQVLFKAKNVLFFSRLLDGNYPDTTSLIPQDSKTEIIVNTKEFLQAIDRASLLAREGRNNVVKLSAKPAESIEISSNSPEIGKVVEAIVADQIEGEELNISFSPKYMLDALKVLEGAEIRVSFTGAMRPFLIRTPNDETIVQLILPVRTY
# Sequence of dnaa_bacsu dnaA (P05648 whole entry): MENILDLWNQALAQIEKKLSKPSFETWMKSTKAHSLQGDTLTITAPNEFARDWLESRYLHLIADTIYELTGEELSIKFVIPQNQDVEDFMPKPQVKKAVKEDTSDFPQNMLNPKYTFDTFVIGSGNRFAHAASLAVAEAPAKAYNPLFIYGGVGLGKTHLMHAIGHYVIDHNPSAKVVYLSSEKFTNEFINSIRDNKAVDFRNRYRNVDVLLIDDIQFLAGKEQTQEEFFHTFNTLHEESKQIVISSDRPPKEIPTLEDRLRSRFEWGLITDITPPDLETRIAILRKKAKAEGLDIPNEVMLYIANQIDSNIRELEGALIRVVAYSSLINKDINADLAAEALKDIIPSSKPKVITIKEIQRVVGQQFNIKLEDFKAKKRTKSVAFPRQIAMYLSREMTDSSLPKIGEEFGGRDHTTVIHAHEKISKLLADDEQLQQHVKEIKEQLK
# Sequence of tlpa_bacsu tlpA (P39216 whole entry): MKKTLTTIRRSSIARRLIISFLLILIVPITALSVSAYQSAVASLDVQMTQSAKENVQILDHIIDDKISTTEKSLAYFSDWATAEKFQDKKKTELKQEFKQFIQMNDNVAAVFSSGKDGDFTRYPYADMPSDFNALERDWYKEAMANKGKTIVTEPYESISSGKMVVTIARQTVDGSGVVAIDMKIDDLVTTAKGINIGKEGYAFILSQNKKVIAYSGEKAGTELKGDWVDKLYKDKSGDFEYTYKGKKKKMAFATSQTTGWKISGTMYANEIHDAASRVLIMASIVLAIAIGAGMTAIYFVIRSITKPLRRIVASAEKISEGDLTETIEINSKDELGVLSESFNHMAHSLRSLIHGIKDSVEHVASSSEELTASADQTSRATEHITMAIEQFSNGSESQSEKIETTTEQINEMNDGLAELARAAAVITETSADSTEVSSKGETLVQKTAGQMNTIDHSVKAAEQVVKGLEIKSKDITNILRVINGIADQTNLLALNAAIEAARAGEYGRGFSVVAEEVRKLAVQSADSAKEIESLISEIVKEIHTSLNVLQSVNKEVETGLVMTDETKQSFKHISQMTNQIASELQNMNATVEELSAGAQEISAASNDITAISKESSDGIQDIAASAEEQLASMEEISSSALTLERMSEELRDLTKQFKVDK
# Sequence of acub_bacsu acuB (P39066 whole entry): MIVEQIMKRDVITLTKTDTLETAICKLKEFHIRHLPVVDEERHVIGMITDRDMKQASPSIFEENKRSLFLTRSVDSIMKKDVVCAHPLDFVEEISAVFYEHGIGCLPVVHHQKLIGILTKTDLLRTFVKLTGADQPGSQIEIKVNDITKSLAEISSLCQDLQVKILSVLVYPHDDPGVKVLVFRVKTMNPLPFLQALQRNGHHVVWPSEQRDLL
Substance,effect of a mutation on the interaction (dnaa_bacsu dnaA),effect of a mutation on the interaction (acub_bacsu acuB),effect of a mutation on the interaction (tlpa_bacsu tlpA),effect of a mutation on the interaction (dpo3b_bacsu dnaN)
"Replication initiation control protein YabA (Bacillus subtilis), P37542 L27A",disrupting interaction strength,disrupting interaction strength,disrupting interaction strength,disrupting interaction strength
"Replication initiation control protein YabA (Bacillus subtilis), P37542 L86P",disrupting interaction strength,,,
"Replication initiation control protein YabA (Bacillus subtilis), P37542 L110P",,,,disrupting interaction strength
"Replication initiation control protein YabA (Bacillus subtilis), P37542 N85D",disrupting interaction strength,,,
"Replication initiation control protein YabA (Bacillus subtilis), P37542 V99A",,,,disrupting interaction strength
